This note sets out measurements from article PMC1839166, “Type III Effector Activation via Nucleotide Binding, Phosphorylation, and Host Target Interaction” (PLoS Pathogens, 2007).

In experiment [1] the target is T1, avirulence protein B (AvrB), wild type (Pseudomonas syringae pv. glycinea, UniProt P13835 1-321).
T1 construct: AvrB (avirulence protein B), type III effector of Pseudomonas syringae pv. glycinea; residues 26-53 and 56-321 are modelled in the AvrB/RIN4 structure; also called wild-type AvrB; source: E. coli BL21 Rosetta (pProEX-HTa), purified (nickel column, TEV digestion, Source Q, Sephacryl S200 if needed); not shown: His tag, N-terminal, cleaved
T1 sequence (P13835 whole entry, the tested form may be a part): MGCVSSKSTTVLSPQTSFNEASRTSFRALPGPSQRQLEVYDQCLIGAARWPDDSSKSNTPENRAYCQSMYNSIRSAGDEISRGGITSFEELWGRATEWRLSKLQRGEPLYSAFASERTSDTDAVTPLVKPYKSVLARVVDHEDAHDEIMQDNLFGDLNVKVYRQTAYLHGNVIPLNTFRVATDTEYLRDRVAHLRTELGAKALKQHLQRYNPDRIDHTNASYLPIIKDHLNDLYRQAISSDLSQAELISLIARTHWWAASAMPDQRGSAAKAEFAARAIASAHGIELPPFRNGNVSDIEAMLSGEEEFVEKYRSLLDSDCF
In words: ITC; VP-ITC microcalorimeter; RIN4_(142–176) peptide (50 to 450 μM) titrated in 6-μl injections into 5 to 25 μM wild-type or variant AvrB, stirring at 255 rpm; wild-type AvrB 6 μM with full-length RIN4 120 μM; nonbinding confirmed at as much as 25 μM and 450 μM. To be noted: both partners purified. (In ITC the heat of successive injections is recorded.)

For another experiment, the target named is T2, AvrB^QRY/AAA (Pseudomonas syringae pv. glycinea, UniProt P13835 1-321, QRY/AAA (Q208, R209, and Y210 to alanine)).
T2 construct: AvrB (avirulence protein B), Pseudomonas syringae pv. glycinea; also called triple mutation of Q208, R209, and Y210 to alanine; source: E. coli BL21 Rosetta, purified (glutathione column, TEV digestion, Source Q); not shown: GST, N-terminal, cleaved
T2 sequence: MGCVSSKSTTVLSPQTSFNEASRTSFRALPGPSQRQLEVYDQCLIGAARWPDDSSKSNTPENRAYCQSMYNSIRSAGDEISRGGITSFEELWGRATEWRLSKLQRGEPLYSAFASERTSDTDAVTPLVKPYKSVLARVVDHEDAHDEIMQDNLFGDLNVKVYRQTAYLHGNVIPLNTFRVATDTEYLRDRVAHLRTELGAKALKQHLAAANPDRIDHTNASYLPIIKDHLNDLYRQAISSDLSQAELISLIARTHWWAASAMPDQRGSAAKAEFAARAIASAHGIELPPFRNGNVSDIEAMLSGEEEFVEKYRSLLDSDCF
The description is as above. To be noted: both partners purified.

B1: RIN4_(142–176) (peptide, UniProt Q8GYN5 142-176, looked up)
peptide: PEKVTVVPKFGDWDENNPSSADGYTHIFNKVREER
notes: the last four residues are printed as REER; residues 150-172 are modelled in the structure; also called RIN4 peptide
What is called Kd is the concentration at which binding is half-saturated. Read a low Kd as higher affinity. Consider B1, for which the Kd in experiment [1] came to 3 µM; with AvrB^QRY/AAA it was 9 µM.
